Assays:
[1] = biological target: human thyroid stimulating hormone receptor (TSHR) (human) (UniProt P16473); assay: receptor binding affinity; assay and reference not described (reference presumably wild type hTSH)
[2] = biological target: human thyroid stimulating hormone receptor (TSHR) (human) (UniProt P16473); assay: cell-based or functional assay

Row | Substance | fold increase in binding affinity [1] | hormone potency [2] | Vmax of cyclic AMP production in CHO-JP09 cells, compared to wild type TSH [2] | in vitro activity (cyclic AMP production in CHO-JP09 cells) over that of the α4K/wild type β heterodimer [2] | potency in stimulation of cyclic AMP production in CHO-JP09 cells, compared to wild type TSH [2]
1 | α4K/β3R hTSH analog (heterodimer of α4K mutant α subunit and β3R mutant TSH β subunit) (from UniProt P01215 25-116; P01222 21-132) (ligand) | < 50000 fold | < 1300 fold | – | – | –
2 | mutant TSH heterodimer comprising the α4K subunit (αQ13K+αE14K+αP16K+αQ20K) and a fusion protein of the TSH β subunit and the CTEP of hCG (from UniProt P0DN86 134-165) (ligand) | – | – | 1.5 fold | 3 to 4 fold | 200 fold
